The assay relates to patients with pain due to osteoarthritis of the knee or hip. The assay can be described thus: WOMAC pain and functional score improvement in R475-OA-1688 clinical trial, stratified by OA proteomic risk score groups. Type of assay: in vivo, human.

B1: fasinumab (antibody, chains of the INN, looked up, V domains shown)
VH: QVQLVQSGAEVKKPGASVKVSCKVSGFTLTELSIHWVRQAPGKGLEWMGGFDPEDGETIYAQKFQGRVTMTEDTSTDTAYMELTSLRSEDTAVYYCSTIFGVVTNFDNWGQGTLVTVSS
VL: DIQMTQSPSSLSASAGDRVTITCRASQAIRNDLGWYQQKPGKAPKRLIYAAFNLQSGVPSRFSGSGSGTEFTLTISSLQPEDLASYYCQQYNRYPWTFGQGTKVEIK
notes: anti-NGF antibody (NGF antagonist) tested in phase 3 study R475-OA-1688
Turning to B1, the “efficacy compared with both NSAIDs or placebo treated patients” value (Fasinumab 1q4w, OA proteomic score high risk group) is on record as “has efficacy benefits”. Besides, the “efficacy compared with either NSAIDs or placebo” value (fasinumab 1q4w, patients in 1st to 3rd OA proteomic score quartiles) is listed as “maintains efficacy superiority”. Under “patients in 1st to 3rd OA proteomic score quartiles, fasinumab 1q4w, FIG. 9 and FIG. 10”, the “efficacy profile (both WOMAC pain and WOMAC functional scores)” value is reported as “better efficacy profile”.
